Results on three molecules are retold here after US20170260272A1 (Novartis, published 2017).

Where two headings read alike, the source gives them in different places.

The target of test [1] is T1, APP-Avi-soluble human LOX-1(61-273) (human, UniProt P78380 61-273). Nature of the test: SET, IgG vs soluble human LOX-1.
Test [2] has as its target T1, APP-Avi-soluble human LOX-1(61-273). Kind of test: competition ELISA: AGE-BSA binding to plate-bound biotinylated human sLOX-1. The method, then:
Purified APP-Avi-soluble human soluble LOX-1(61-273) protein prepared as described in Example 1 was biotinylated as described in Example 5. NeutrAvidin 384 well plates were coated with 5 μg/ml biotinylated LOX-1 diluted in bicarbonate buffer (Thermo Scientific). After blocking with PBS/2% BSA/0.1% Tween20/0.1% TritonX-100, purified Fabs or IgGs diluted in PBS/2% BSA/0.1% Tween20/0.1% TritonX-100 were added. Subsequently AGE-BSA ligand (R&D Systems, #BT4127) diluted in PBS/2% BSA/0.1% Tween20/0.1% TritonX-100 was allowed to bind to coated LOX-1. Streptavidin-HRP (R&D Systems) diluted 1:200 in PBS/2% BSA/0.1% Tween20/0.1% TritonX-100 was added followed by addition of TMB substrate (Thermo Scientific). After 10 minutes 1M H₂SO₄ was added and absorbance was determined at 450 nm. Assay performance was affected by the type of BSA used for blocking and diluent solutions. For optimal assay performance, BSA from Sigma (catalog #A4503) was used.
(ELISA stands for enzyme-linked immunosorbent assay.)

Test [3] has the same target. Kind of test: SET, IgG vs soluble human LOX-1. The method, then:
(§1) Affinity determination for anti-LOX-1 IgGs using Solution Equilibrium Titration (SET) was basically performed as described in the literature (Friguet et al., 1985 J Immunol Methods 77: 305-319). The assays were performed in a 96-well polypropylene plate (Thermo Scientific, Catalog no. AB-1127) using a constant concentration of LOX-1 antibody mixed with different concentrations of non-biotinylated human or cynomolgus monkey LOX-1 protein and incubated at 22° C. for 14 hours with constant shaking (300 rpm).
(§2) On a pre-blocked MSD plate (Meso Scale Discovery, catalog no. L21SA) biotinylated human or cynomolgus monkey soluble LOX-1 protein was immobilized and washed afterwards. The equilibrium binding reactions were then applied to the MSD plate with immobilized LOX-1 and incubated for 30 min. The unbound material was removed by washing the plate, and the captured antibody was detected by adding Sulfo-tagged goat anti-human IgG (Meso Scale Discovery, catalog no. R3AJ-1). After incubation and washing 1×MSD read buffer T(Meso Scale Discovery, catalog no. R92TC-2) was added and the plate was developed using a Sector Imager 6000 (Meso Scale Discovery). The data were transferred to Excel for analysis and plotted using GraphPad Prism v5. The KD values were determined by fitting the data to the following equation: […]
This is another data set of the same source.

The target is the same in test [4]. Kind of test: competition ELISA: oxLDL binding to plate-bound biotinylated human sLOX-1. The method, then:
NeutrAvidin 384 well plates were coated with 2.5 μg/ml biotinylated LOX-1 diluted in PBS. After blocking with 25% Block Ace (AbD Serotec, Cat#BUF029) in PBS, purified Fabs or IgGs diluted in PBS/1% BSA were added. Subsequently OxLDL (copper-sulfate oxidized LDL, Kalen Biomedical #770202) or MDA-LDL (Academy Biomedical, #20P-UMD-L102) ligand diluted in PBS/1% BSA were allowed to bind to coated LOX-1. Secondary antibody (HRP conjugated sheep anti ApoB IgG; The Binding Site) diluted 1:1,000 in PBS/1% BSA was added followed by addition of TMB substrate (Thermo Scientific). After 10 minutes 1M H2SO4 was added and absorbance was determined at 450 nm. During early screenings, Fab fragments were also tested in this oxLDL binding assay using Fab-containing crude E. coli lysates.
The ability of LOX-1 antibodies to inhibit oxLDL binding to LOX-1 protein was determined using the method described in Example 4. In addition to “high binding OxLDL” from Kalen Biomedical (catalog number 770212-7), which is generated by copper sulfate mediated oxidation of LDL, two other forms of modified LDL were tested in this assay: malondialdehyde modified LDL (Academy Bio-Medical Co. catalog number 20P-MD-L105) and hypochlorite modified LDL. Hypochlorite modified LDL was prepared according to the following procedure. Human LDL (Kalen Biomedical catalog number 770200-4) was diluted with PBS to a final concentration of 0.25 mg/mL. Sodium hypochlorite (NaOCI, JT Baker catalog number 9416-01) was then added to 0.1 mM final concentration. The solution was incubated at room temperate for 4 hours, then quenched by adding L-methionine to a final concentration of reaction by adding 5 μl of 100 mM Mehionine per 200 μl total volume.

The target of test [5] is T2, APP-Avi-soluble cynomolgus monkey LOX-1(61-273) (cynomolgus monkey).
T2 construct: Non-biotinylated as titrated antigen in SET, biotinylated for capture on the plate; also called cyno sLOX-1; cynomolgus monkey soluble LOX-1
Kind of test: SET, IgG vs soluble cynomolgus LOX-1. The protocol: as §1, §2

T2 sequence (chain, as listed by the source limits assumed): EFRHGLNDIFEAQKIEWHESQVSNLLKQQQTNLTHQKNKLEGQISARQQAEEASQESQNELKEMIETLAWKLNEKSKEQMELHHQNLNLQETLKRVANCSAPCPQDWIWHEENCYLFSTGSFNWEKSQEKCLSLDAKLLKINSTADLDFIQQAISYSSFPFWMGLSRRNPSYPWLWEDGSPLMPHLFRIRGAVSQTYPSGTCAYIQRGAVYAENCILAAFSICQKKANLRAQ

B1: MOR021433 (antibody, human IgG1, kappa, L234A L235A, V domains shown)
VH: QVQLVQSGAEVKKPGSSVKVSCKASGGTFSDYAISWVRQAPGQGLEWMGGIMPISGAPYYAQKFQGRVTITADESTSTAYMELSSLRSEDTAVYYCARDSSTSYYYYFDYWGQGTLVTVSS
VL: DIQMTQSPSSLSASVGDRVTITCRASQDINSWLAWYQQKPGKAPKLLIYQASNLQSGVPSRFSGSGSGTDFTLTISSLQPEDFATYYCQQIDHTPFTFGQGTKVEIKR
notes: also called MOR21433
In general, IC50 refers to the concentration needed to halve the response being measured. For B1, the results for the Kd in test [1], in test [3] and in test [5] were 2.5 pM, 3 pM and 4 pM, respectively. Moreover, the figures for the IC50 in test [2] and in test [4] were 1400 pM and 2900 pM, respectively.

B2: MOR021435 (antibody, human IgG1, kappa, L234A L235A, V domains shown)
VH: QVQLVQSGAEVKKPGSSVKVSCKASGGTFSDYAISWVRQAPGQGLEWMGGIVPIVGTANYAQKFQGRVTITADESTSTAYMELSSLRSEDTAVYYCARDSSTSYYYYFDYWGQGTLVTVSS
VL: DIQMTQSPSSLSASVGDRVTITCRASQDINSWLAWYQQKPGKAPKLLIYQASNLQSGVPSRFSGSGSGTDFTLTISSLQPEDFATYYCQQMWQFPITFGQGTKVEIKR
notes: also called MOR21435
For B2, the results for the Kd in test [1], in test [3] and in test [5] were 6 pM, 5 pM and 5 pM, respectively. Further, the IC50 in test [2] turned out to be 1700 pM; in test [4], 2800 pM.

B3: MOR021452 (antibody, human IgG1, lambda, L234A L235A)
heavy: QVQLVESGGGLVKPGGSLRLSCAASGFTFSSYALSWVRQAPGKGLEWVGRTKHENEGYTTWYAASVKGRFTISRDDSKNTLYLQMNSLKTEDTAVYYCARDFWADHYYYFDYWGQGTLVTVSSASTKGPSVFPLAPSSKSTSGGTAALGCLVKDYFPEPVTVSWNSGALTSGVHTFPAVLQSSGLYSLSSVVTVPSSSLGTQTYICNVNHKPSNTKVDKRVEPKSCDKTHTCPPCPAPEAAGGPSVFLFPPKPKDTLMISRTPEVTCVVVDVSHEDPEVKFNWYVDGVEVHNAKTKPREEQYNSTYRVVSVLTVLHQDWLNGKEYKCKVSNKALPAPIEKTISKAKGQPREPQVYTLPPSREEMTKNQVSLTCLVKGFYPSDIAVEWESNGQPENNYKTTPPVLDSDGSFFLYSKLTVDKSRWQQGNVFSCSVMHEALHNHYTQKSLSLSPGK
light: DIALTQPASVSGSPGQSITISCTGTSSDVGYINYVNWYQQHPGKAPKLMIYEVSNRPSGVSNRFSGSKSGNTASLTISGLQAEDEADYYCASWDWYDNVVFGGGTKLTVLGQPKAAPSVTLFPPSSEELQANKATLVCLISDFYPGAVTVAWKADSSPVKAGVETTTPSKQSNNKYAASSYLSLTPEQWKSHRSYSCQVTHEGSTVEKTVAPTECS
notes: also called MOR21452
On to B3, for which the Kd was found to be 7.5 pM in test [1], 10 pM in test [3] and 7 pM in test [5]. Besides, the IC50 came out at 2200 pM in test [2] and 3200 pM in test [4].
